Columns and labels:
CD28 = target: T1, CD28 (Mus musculus, UniProt P31041); test: Co-immunoprecipitation of Myc-tagged V3 with CD28 in PKCθ−/− primary CD4+ T cells; assay type: binding; conditions: Myc-tagged V3 alone, retrovirus, CD3+CD28 mAbs 5 min
T1 construct: PKCθ^−/− primary CD4^+ T cells were infected with a retrovirus expressing a Myc-tagged V3 alone; endogenous in cells; host or cells: primary CD4+ T cells of PKCθ-/- mice, retrovirally transduced only with Myc-tagged V3
Method: (FIG. 2A) Schematic representation of PKCθ mutants. (FIG. 2B) Jurkat E6.1 cells transfected with the indicated PKCθ or PKCδ vectors were stimulated with anti-CD3/CD28 mAbs for 5 min. (FIG. 2C-2E) PKC CD4^+ T cells were infected with retrovirus expressing empty pMIG vector, WT PKCθ, or PKCθ−ΔV3 (FIG. 2C); WT PKCθ, PKCθ/δV3, or WT PKCδ (FIG. 2D); empty pMIG-vector or Myc-tagged V3 of PKCθ (FIG. 2E). Cells were harvested and restimulated with CD3+CD28 mAbs for 5 min. Cell lysates were prepared, immunoprecipitated with anti-CD28 mAb, resolved by SDS-PAGE, and immunoblotted with the indicated Abs. (FIG. 2F) Jurkat T cells cotransfected with Myc-tagged PKCθ−V3 plus CFP-tagged CD28 were mixed with SEE-pulsed Raji B cells at a 1:1 ratio. Conjugates were fixed and stained with a rabbit anti-Myc Ab plus a secondary Alexa 488-coupled antibody. Data shown is from four studies.
Retrovirally transduced CD4^+ T cells were stimulated with anti-CD3 and anti-CD28 mAbs for 5 min. Cell lysis in 1% digitonin lysis buffer, immunoprecipitation and Western blotting were carried out as described (Yokosuka, T. et al. Immunity 29, 589-601 (2008)).
To determine whether the V3 domain is sufficient for this interaction, PKCθ^−/− primary CD4^+ T cells were infected with a retrovirus expressing a Myc-tagged V3 alone. […]

[1] = test system: Naïve CD4+ T cells from B6 mice, Th9 cells; test: In vitro Th9 differentiation of retrovirally transduced CD4+ T cells; assay type: cell-based, mouse; conditions: Th9-polarizing conditions (IL-4+TGFβ), IL-9-producing cells
Method: Naïve CD4^+ T cells from B6 mice stimulated with anti-CD3 plus anti-CD28 mAbs and differentiated in vitro under Th9-polarizing conditions (IL-4+TGFβ) were retrovirally transduced with empty pMIG vector, or with the indicated PKCθ V3 vectors. Transduced (GFP+) cells were sorted and IL-9-producing cells were analyzed by intracellular staining 8 h after restimulation. Cumulative data showing percentage of cytokine-producing. V3-4PA refers to mutation of 4 Pro residues in the Pro-rich motif to Ala and V3-DPR refers to deletion of the Pro-rich motif (ARPPCLPTP).
Th9 cells have been reported to play an important role in promoting allergic diseases such as asthma (J. Asthma 48:115, 2011; Curr. Opin. Immunol. 24:1, 2012. These findings indicate that allergic disease such as asthma can be treated in accordance with the invention.

[2] = test system: Naïve CD4+ T cells from B6 mice, Treg (FoxP3+) cells; test: In vitro Treg (FoxP3+) differentiation of retrovirally transduced CD4+ T cells; assay type: cell-based, mouse; conditions: Treg-polarizing conditions (IL-2+TGFβ), GFP+FoxP3+ cells
Method: (§1) Naïve CD4+ T cells from B6 mice stimulated with anti-CD3 plus anti-CD28 mAbs and differentiated in vitro under Treg-polarizing conditions (IL-2+TGFβ) were retrovirally transduced with empty pMIG vector, or with the indicated PKCθ V3 vectors. Transduced (GFP+) cells were sorted and FoxP3+ cells were analyzed by intracellular staining.
as §1, with “CD4^+” for “CD4+”, “(GFP+)” for “(GFP+) cells were sorted and”, “intracellular staining 8 hours after restimulation. Right panels represent cumulative data showing percentage of GFP+FoxP3+ cells by intracellular” for “intracellular”

[3] = test system: Th2-mediated lung inflammation; test: Th2-mediated Ova-induced airway inflammation after adoptive transfer of transduced OT-II Th2 cells; assay type: in vivo, mouse; conditions: transferred Th2 cells, aerosolized Ova 3 consecutive days
Excerpt: (§2) (FIG. 7A-7D) OT-II CD4^+ T cells stimulated with anti-CD3 plus anti-CD28 mAbs and differentiated in vitro under Th2 (FIG. 7A-7C) or Th1 (FIG. 7D, 7E)-polarizing conditions were retrovitrally transduced with the same PKCθ V3 vectors as in FIG. 6. Sorted GFP^+ populations were adoptively transferred into naïve B6 mice, which were challenged with aerosolized Ova for 3 consecutive days. BAL fluid were obtained 1 d post-challenge and analyzed for total mononuclear cell infiltration (FIG. 7A, 7D) and cytokine expression using IL-4 (FIG. 7B), IL-5 (FIG. 7C) and IFN-γ (FIG. 7E) ELISA.
(§3) CD4^+ T cells from OT-II B6 mice were isolated and cultured with plate-bound anti-CD3 (5 μg/ml), soluble anti-CD28 (2.5 μg/ml) and IL-2 (100 U/ml) under Th1 or Th2 polarizing conditions. The cells were retrovirally infected on days 2-4 and cultured for an additional 3 days. GFP^+ cells were sorted, and 1×10^6 cells were injected intravenously into naïve WT B6 mice. One day later, mice received aerosolized Ova (5 mg/ml in 20 ml PBS) for 30 min, once a day for 3 consecutive days, using ultrasonic nebulization. Mice were sacrificed 24 h after the last challenge and assessed for lung inflammation. Collection of BAL fluid and determination of cytokine levels were carried out as described (Salek-Ardakani, S. et al. J Immunol 173, 6440-6447 (2004)).
The above findings were extended to an in vivo antigen-specific inflammatory response in an airway inflammation model, using a T cell adoptive transfer system. Mice receiving OT-II Th2 cells transduced with an empty vector developed an inflammatory response by comparison with PBS-challenged control mice, as evidenced by a significant increase in the number of infiltrating leukocytes in the bronchoalveolar lavages (BAL) fluid (FIG. 7a) and in the levels of signature Th2 cytokines, IL-4 (FIG. 7b) and IL-5 (FIG. 7c).

[4] = test system: Th1-mediated lung inflammation; test: Th1-mediated Ova-induced airway inflammation after adoptive transfer of transduced Th1 effector cells; assay type: in vivo, mouse; conditions: transferred Th1 effector cells
Excerpt: as §2, §3

T1 sequence (P31041 20-218): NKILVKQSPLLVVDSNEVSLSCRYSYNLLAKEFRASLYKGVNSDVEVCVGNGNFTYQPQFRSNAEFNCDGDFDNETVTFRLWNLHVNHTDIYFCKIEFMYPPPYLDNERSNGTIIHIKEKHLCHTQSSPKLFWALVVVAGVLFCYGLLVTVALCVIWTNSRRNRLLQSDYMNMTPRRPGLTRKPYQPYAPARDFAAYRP
T1 sequence (P06240 2-509 partner): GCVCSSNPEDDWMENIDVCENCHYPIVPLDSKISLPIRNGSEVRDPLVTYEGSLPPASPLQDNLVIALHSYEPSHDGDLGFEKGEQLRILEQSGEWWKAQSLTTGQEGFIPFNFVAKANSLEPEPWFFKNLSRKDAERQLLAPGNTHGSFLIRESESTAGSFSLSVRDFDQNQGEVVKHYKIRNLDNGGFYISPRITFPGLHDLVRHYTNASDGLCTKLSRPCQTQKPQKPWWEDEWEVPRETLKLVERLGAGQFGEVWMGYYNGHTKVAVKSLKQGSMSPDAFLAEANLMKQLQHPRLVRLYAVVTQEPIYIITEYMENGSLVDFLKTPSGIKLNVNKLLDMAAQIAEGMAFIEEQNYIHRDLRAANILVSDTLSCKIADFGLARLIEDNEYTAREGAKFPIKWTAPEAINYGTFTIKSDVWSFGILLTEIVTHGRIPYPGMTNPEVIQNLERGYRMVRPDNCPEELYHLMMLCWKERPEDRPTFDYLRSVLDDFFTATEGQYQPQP

B1: V3 domain: amino acid 282-379 of human PKCθ with N-terminal Myc tag, expressed from pMIG retroviral vector (protein)
chain: GINQKLMAEALAMIESTQQARCLRDTEQIFREGPVEIGLPCSIKNEARPPCLPTPGKREPQGISWESPLDEVDKMCHLPEPELNKERPSLQIKLKIED
modifications: left off: small tags and cut ends
notes: amino acid 282-379 of human PKCθ with N-terminal Myc tag, expressed from pMIG retroviral vector
coimmunoprecipitation with CD28 (CD28): coimmunoprecipitated with CD28
effect on differentiation of Th9 cells [1]: interferes
promotion of Treg differentiation [2]: ~4 fold
levels of Th2 cytokines (IL-4, IL-5) in BAL fluid [3]: to basal levels
levels of infiltrating cells in BAL fluid [3]: to basal levels
inhibition of the Th1 lung inflammation response (leukocyte infiltration, IFN-γ in BAL fluid) [4]: did not inhibit

— patent US20180335433A1, “COMPOSITIONS TARGETING PKC-THETA AND USES AND METHODS OF TREATING PKC-THETA PATHOLOGIES, ADVERSE IMMUNE RESPONSES AND DISEASES” (La Jolla Institute for Allergy and Immunology, priority 2011, published 2018)
